Experimental data reported in patent US20150297672A1, “Alpha- and gamma-MSH analogues” (TXP Pharma GmbH, priority 2014, published 2015).

Target: human melanocortin receptor type 1 (MC1r) (human) (UniProt Q01726)
Assay: cell-based or functional assay

human melanocortin receptor type 1 (MC1r) (human), sequence (Q01726 whole entry): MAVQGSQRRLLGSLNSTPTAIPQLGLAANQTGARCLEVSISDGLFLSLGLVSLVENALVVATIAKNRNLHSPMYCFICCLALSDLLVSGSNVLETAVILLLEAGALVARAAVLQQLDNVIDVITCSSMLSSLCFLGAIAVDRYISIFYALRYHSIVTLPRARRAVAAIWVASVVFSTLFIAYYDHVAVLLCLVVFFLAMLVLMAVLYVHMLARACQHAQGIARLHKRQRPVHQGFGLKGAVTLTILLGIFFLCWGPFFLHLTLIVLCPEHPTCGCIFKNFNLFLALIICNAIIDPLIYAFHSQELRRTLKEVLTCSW

| Binder | EC50, cAMP production | Emax (max efficacy expressed as percent of αMSH), cAMP production | maximal efficacy (Emax), cAMP production |
| --- | --- | --- | --- |
| KKKKKKSYSXEHFRWGKPV (N-terminal acetyl; Nle (norleucine) at position 10 (written X); D-Phe at position 13; C-terminal amide) [Ac(Lys)6-NDP-αMSH (Ac(Lys)6-Ser-Tyr-Ser-Nle Glu-His-(D-Phe)-Arg-Trp-Gly-Lys-Pro-Val-NH2)] | 1.35 nM | 62 % of αMSH | – |
| Ac-KKKKKKSYSMEHFRWGKPV-NH2 | 2.12 nM | 72 % of αMSH | 3 nM |
